Measured values from patent publication US20090324566A1 (published 2009).

What was measured:
[1] = biological target: T1, MAGE-A4 peptide on HLA-A*24:02 (human); assay: multimer staining
T1 peptide: NYKRCFPVI

[2] = biological target: T2, SAGE peptide on HLA-A*24:02 (human); assay: killing
T2 peptide: LYATVIHDI
Experimental: (§1) The T2 cells, the T2-A24 cells, and T2-A2 cells prepared by transfecting HLA-A0201 gene into T2 cells were washed 3 times with RPMI 1640 medium, and the washed cells were suspended in RPMI 1640 medium so as to have a density of 5×10⁶ cells/mL. P143 or P715 was added to 1 mL each of the above-mentioned cell suspensions so as to have a final concentration of 10 μM, and the mixture was allowed to stand at room temperature for 15 minutes. Thereafter, 1 mL each of RPMI 1640 medium containing 10% FCS was added thereto, and the mixture was incubated at 37° C. for 1 hour. […]
(§2) The ms69 cells, the RNA-transduced ms69 cells, the #2-28 cells, the CD8 positive cells, and the RNA-transduced CD8 cells were washed twice with RPMI 1640 medium, and the washed cells were suspended in RPMI 1640 medium containing 10% FCS so as to have a density of 2×10⁶ cells/mL, 1×10⁶ cells/mL, 5×10⁵ cells/mL, 2.5×10⁵ cells/mL, 1.25×10⁵ cells/mL, and 6.25×10⁴ cells/mL (effector cells), respectively, and a 100 μL portion thereof was put in each well of a 96-well V-bottom plate. […] The mixture was reacted at 37° C. for 4 hours, and thereafter the supernatants were collected by centrifugation, and an amount of ⁵¹Cr released to 100 μL of the supernatant was determined by using a gamma counter. The specific cytotoxic activity was calculated from the measured value of radioactivity according to the following formula.

[3] = biological target: T3, MAGE-A4 peptide on HLA-A*02:01 (human); assay: killing
T3 peptide: NYKRCFPVI
Experimental: as §1, §2

binding result [1]: recognises
B1: HLA-A24-restricted, MAGE-A4 143-151-specific TCR of CTL clone #2-28 (SEQ ID NOs 1 and 2) (TCR, V domains shown)
Valpha: AQSVSQHNHHVILSEAASLELGCNYSYGGTVNLFWYVQYPGQHLQLLLKYFSGDPLVKGIKGFEAEFIKSKFSFNLRKPSVQWSDTAEYFCAGRGGGNKLTFGTGTQLKVEL
Vbeta: DTGVSQNPRHKITKRGQNVTFRCDPISEHNRLYWYRQTLGQGPEFLTYFQNEAQLEKSRLLSDRFSAERPKGSFSTLEIQRTEQGDSAMYLCASSLAQGAGETQYFGPGTRLLVL
binding result [2]: no recognition
binding result [3]: no recognition
